This is an account of results in patent publication US8951962B2, “Modified exendins and exendin agonists” (priority 1999, dated 2015).

No end group written: not given here. PEG = not defined here

The nature of data set [1]: HPLC analysis of plasma for circulating metabolites after large intravenous doses. The format is in vivo. To be noted: plasma of animals after large intravenous doses.
In data set [2] the target is T1, GLP-1 receptor (RINm5f membranes) (Rattus norvegicus, UniProt P32301).
T1 construct: host or cells: RINm5f cells (membranes/homogenate)
T1 sequence (P32301 22-463): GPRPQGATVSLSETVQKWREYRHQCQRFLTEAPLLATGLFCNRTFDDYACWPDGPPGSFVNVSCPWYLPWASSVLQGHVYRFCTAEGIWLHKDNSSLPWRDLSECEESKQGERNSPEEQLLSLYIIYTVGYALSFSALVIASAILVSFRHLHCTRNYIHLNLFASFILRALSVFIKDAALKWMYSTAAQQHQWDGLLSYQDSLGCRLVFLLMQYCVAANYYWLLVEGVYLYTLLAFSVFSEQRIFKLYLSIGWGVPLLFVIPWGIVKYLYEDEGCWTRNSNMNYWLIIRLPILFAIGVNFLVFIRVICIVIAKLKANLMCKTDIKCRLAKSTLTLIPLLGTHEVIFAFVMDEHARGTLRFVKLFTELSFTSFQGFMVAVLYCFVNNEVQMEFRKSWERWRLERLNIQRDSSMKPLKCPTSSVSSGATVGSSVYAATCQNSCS
Briefly: Cyclase activation study (GLP-1 Cyclase), cAMP SPA immunoassay on RINm5f membranes. The settings on record: read-out: GLP-1 Cyclase EC50, 20 minutes at 37° C., supernatant cAMP. The format is biochemical. How it is done: All other peptides were prepared using synthesis methods such as those described herein. All chemicals were of the highest commercial grade. The cAMP SPA immunoassay was purchased from Amersham. The radioligands were purchased from New England Nuclear (Boston, Mass.). RINm5f cells (American Type Tissue Collection, Rockville, Md.) were grown in DME/F12 medium containing 10% fetal bovine serum and 2 mM L-glutamine. […] Cells were grown to confluence then harvested and homogenized using on a Polytron homogenizer. Cell homogenates were stored frozen at −70° C. until used.
Membranes and peptides was combined in […] of assay buffer in 96 well filter-bottom plates (Millipore Corp., Bedford, Mass.). After 20 minutes incubation at 37° C., the assay was terminated by transfer of supernatant by filtration into a fresh 96 well plate using a Millipore vacuum manifold. Supernatant cAMP contents were quantitated by SPA immunoassay. Peptide samples were run in the assay as triplicate points at 7 dilutions over a concentration range of 10^−6M to 10^−12M to generate response curves. The biological activity of a particular sample was expressed as an EC50 value calculated as described above.

Data set [3] has as its system NIH:Swiss mice. As to the kind of experiment: Food intake (appetite suppression) in normal mice. The format is in vivo. The settings on record: inhibition of food intake over 30 min, intraperitoneal injection, food deprived NIH:Swiss mice.
Procedure: All mice (NIH:Swiss mice) were housed in a stable environment of 22 (±2)° C., 60 (±10) % humidity and a 12:12 light:dark cycle; with lights on at 0600. […] All experiments were conducted between the hours of 0700 and 0900.

As for GLP-1 [7-36]NH2, the “plasma circulating metabolites (HPLC)” value in data set [1] is listed as “subpeptide degradants”.
The same measure, in the same setting: with “amylin: peptide hormone studied for comparison of plasma degradation (KCNTATCATQRLANFLVHSSNNFGAILSSTNVGSNTY; Islet amyloid polypeptide; UniProt P10997 34-70, looked up)” the entry was “subpeptide degradants”.
Usually EC50 stands for the concentration giving half of the maximal effect. “HGEGTFTSDLSRQMEEAVRLFIEWLRNGGPSSGAPPPK(PEG)-NH2 (reading uncertain; also: printed as HGEGTFTSDLSRQMEEAVRLFIEWLRNGGPSSGAPPPK(PEG)-NH2) [compound 229]”: in data set [2], the EC50 was determined as 60.4 nM. The “Appetite Suppression ED50” value in data set [3] came out at 0.0145 mg/kg.
In the same order, the values of “HGEGTFTSDLSRQMEEEAVRLFIEWLRNGK(PEG)PSSGAPPPS-NH2 [224] (not fully specified; PEG linker; C-terminal amide) [compound 224]” are 3.22 nM and “weak”.
As for “HGEGTFTSDLSRQMEEEAVRLFIEWLRNGK(PEG)PSSGAPPPS-NH2 [230] (not fully specified; PEG linker; C-terminal amide) [compound 230]”, the EC50 in data set [2] came to 157 nM.
